Measured values taken from the supplement of paper PMC9112550, “Optimization of the antimicrobial peptide Bac7 by deep mutational scanning” (BMC Biology, 2022).

What follows are sequences tested on Escherichia coli TOP10 (assay: shrunken log2 fold change of peptide-encoding DNA abundance (4.5 h post-induction vs induction); higher = less antimicrobial activity (less host growth inhibition)). Conditions: time post-induction: 4.5 h; library: site-saturation at positions 5, 18, 19, 20.
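Also: peptides expressed intracellularly from a pBAD plasmid library in pooled LB shake-flask culture, induced with 0.3% L-arabinose, DNA abundance read by NGS, three biological replicates, DESeq2 with apeglm shrinkage.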

Sequence	shrunken log2 fold change
RRIRNRPPRLPRPRPRPRDLPRP	0.186
RRIRNRPPRLPRPRPRPKTGPRP	-0.0778
RRIRMRPPRLPRPRPRPYQYPRP	-0.0219
RRIRARPPRLPRPRPRPCDGPRP	0.146
RRIRARPPRLPRPRPRPSFMPRP	0.0496
RRIRFRPPRLPRPRPRPMYFPRP	-0.331
RRIRYRPPRLPRPRPRPVWYPRP	-0.105
RRIRQRPPRLPRPRPRPRQEPRP	0.0978
RRIRTRPPRLPRPRPRPQRQPRP	0.455
RRIRYRPPRLPRPRPRPDEGPRP	-0.226
RRIRMRPPRLPRPRPRPQFQPRP	-0.165
RRIRDRPPRLPRPRPRPSISPRP	-0.0844
RRIRLRPPRLPRPRPRPHQHPRP	-0.109
RRIRYRPPRLPRPRPRPSSRPRP	-0.0331
RRIRERPPRLPRPRPRPVVRPRP	0.0531
RRIRIRPPRLPRPRPRPERYPRP	-0.175
RRIRHRPPRLPRPRPRPLWMPRP	-0.138
RRIRCRPPRLPRPRPRPTAYPRP	-0.137
RRIRARPPRLPRPRPRPFNHPRP	-0.436
RRIRCRPPRLPRPRPRPNYKPRP	-0.831
RRIRYRPPRLPRPRPRPFYRPRP	-0.0056
RRIRARPPRLPRPRPRPTPPPRP	0.811
RRIRHRPPRLPRPRPRPQCVPRP	0.00938
RRIRYRPPRLPRPRPRPHYIPRP	-0.318
RRIRCRPPRLPRPRPRPIDWPRP	0.0664

Sequence	shrunken log2 fold change
RRIRIRPPRLPRPRPRPFCMPRP	-0.4
RRIRPRPPRLPRPRPRPAKRPRP	0.035
RRIRRRPPRLPRPRPRPRFSPRP	0.425
RRIRKRPPRLPRPRPRPQFDPRP	-0.0088
RRIRGRPPRLPRPRPRPDEPPRP	1.37
RRIRGRPPRLPRPRPRPCAFPRP	2.03
RRIRFRPPRLPRPRPRPRNFPRP	-0.0477
RRIRDRPPRLPRPRPRPIFKPRP	-0.118
RRIRDRPPRLPRPRPRPPRIPRP	0.185
RRIRERPPRLPRPRPRPQTDPRP	-0.323
RRIRERPPRLPRPRPRPFLRPRP	-0.401
RRIRDRPPRLPRPRPRPWWRPRP	0.116
RRIRTRPPRLPRPRPRPVMQPRP	-0.0482
RRIRLRPPRLPRPRPRPEGIPRP	-0.229
RRIRLRPPRLPRPRPRPEGMPRP	0.194
RRIRERPPRLPRPRPRPHGAPRP	0.0169
RRIRYRPPRLPRPRPRPQAWPRP	0.0215
RRIRTRPPRLPRPRPRPIAYPRP	0.0173
RRIRWRPPRLPRPRPRPTYVPRP	0.0417
RRIRPRPPRLPRPRPRPHFTPRP	-0.302
RRIRDRPPRLPRPRPRPAHWPRP	0.404
RRIRIRPPRLPRPRPRPCTRPRP	0.0316
RRIRTRPPRLPRPRPRPWRCPRP	-0.00386
RRIRMRPPRLPRPRPRPAQVPRP	-0.0213
RRIRDRPPRLPRPRPRPQIAPRP	0.0211

Sequence	shrunken log2 fold change
RRIRGRPPRLPRPRPRPQHTPRP	0.588
RRIRNRPPRLPRPRPRPENHPRP	-0.124
RRIRGRPPRLPRPRPRPIHYPRP	-0.242
RRIRNRPPRLPRPRPRPCMAPRP	-0.346
RRIRARPPRLPRPRPRPRHRPRP	0.412
RRIRYRPPRLPRPRPRPVAGPRP	-0.0147
RRIRFRPPRLPRPRPRPHVWPRP	0.491
RRIRHRPPRLPRPRPRPQAVPRP	0.00884
RRIRFRPPRLPRPRPRPEWRPRP	0.531
RRIRERPPRLPRPRPRPLPDPRP	-0.0462
RRIRTRPPRLPRPRPRPCKMPRP	-0.47
RRIRLRPPRLPRPRPRPMHAPRP	0.12
RRIRYRPPRLPRPRPRPSRWPRP	0.0398
RRIRQRPPRLPRPRPRPINQPRP	-0.314
RRIRIRPPRLPRPRPRPCRYPRP	-0.317
RRIRQRPPRLPRPRPRPQIQPRP	-0.411
RRIRTRPPRLPRPRPRPGPIPRP	0.316
RRIRMRPPRLPRPRPRPVSHPRP	0.259
RRIRVRPPRLPRPRPRPDRQPRP	-0.215
RRIRWRPPRLPRPRPRPVYWPRP	0.14
RRIRMRPPRLPRPRPRPRCMPRP	0.511
RRIRGRPPRLPRPRPRPNMFPRP	0.351
RRIRPRPPRLPRPRPRPVKRPRP	-0.171
RRIRMRPPRLPRPRPRPKMSPRP	0.123
RRIRYRPPRLPRPRPRPKSNPRP	-0.206

Sequence	shrunken log2 fold change
RRIRHRPPRLPRPRPRPKFFPRP	-0.0649
RRIRGRPPRLPRPRPRPNNFPRP	0.291
RRIRWRPPRLPRPRPRPLTAPRP	0.436
RRIRARPPRLPRPRPRPKWLPRP	0.234
RRIRFRPPRLPRPRPRPKDWPRP	0.233
RRIRRRPPRLPRPRPRPVTGPRP	0.0301
RRIRMRPPRLPRPRPRPSRQPRP	0.956
RRIRRRPPRLPRPRPRPNPAPRP	0.643
RRIRFRPPRLPRPRPRPQKEPRP	0.172
RRIRMRPPRLPRPRPRPESYPRP	-0.00254
RRIRPRPPRLPRPRPRPKKCPRP	-0.352
RRIRFRPPRLPRPRPRPKLWPRP	0.287
RRIRWRPPRLPRPRPRPDFSPRP	-0.0269
RRIRARPPRLPRPRPRPYSWPRP	-0.0849
RRIRVRPPRLPRPRPRPAVNPRP	0.138
RRIRKRPPRLPRPRPRPWIDPRP	-0.00174
RRIRDRPPRLPRPRPRPHTFPRP	-0.111
RRIRARPPRLPRPRPRPACWPRP	0.849
RRIRCRPPRLPRPRPRPLTAPRP	-0.119
RRIRGRPPRLPRPRPRPNSMPRP	0.0537
RRIRKRPPRLPRPRPRPPEFPRP	0.0984
RRIRFRPPRLPRPRPRPQHPPRP	-0.326
RRIRMRPPRLPRPRPRPRTWPRP	1.11
RRIRPRPPRLPRPRPRPFSLPRP	-0.365
RRIRTRPPRLPRPRPRPMTKPRP	-0.0084

Sequence	shrunken log2 fold change
RRIRERPPRLPRPRPRPVRQPRP	0.412
RRIRKRPPRLPRPRPRPLGKPRP	0.39
RRIRSRPPRLPRPRPRPWPVPRP	0.12
RRIRVRPPRLPRPRPRPSKTPRP	-0.61
RRIRLRPPRLPRPRPRPDRIPRP	-0.123
RRIRARPPRLPRPRPRPPNYPRP	-0.0985
RRIRLRPPRLPRPRPRPMSHPRP	0.0207
RRIRQRPPRLPRPRPRPPFMPRP	0.213
RRIRDRPPRLPRPRPRPQYFPRP	0.0205
RRIRTRPPRLPRPRPRPMTQPRP	0.13
RRIRNRPPRLPRPRPRPYEEPRP	-0.277
RRIRHRPPRLPRPRPRPQNWPRP	0.0558
RRIRPRPPRLPRPRPRPPCWPRP	0.468
RRIRDRPPRLPRPRPRPLIGPRP	0.239
RRIRTRPPRLPRPRPRPIFPPRP	0.166
RRIRWRPPRLPRPRPRPDSFPRP	0.00192
RRIRFRPPRLPRPRPRPCWRPRP	-0.199
RRIRIRPPRLPRPRPRPAALPRP	-0.134
RRIRIRPPRLPRPRPRPKGMPRP	-0.214
RRIRQRPPRLPRPRPRPCFDPRP	-0.103
RRIRSRPPRLPRPRPRPPFWPRP	0.837
RRIRVRPPRLPRPRPRPCATPRP	0.0911
RRIRKRPPRLPRPRPRPAVQPRP	0.195
RRIRYRPPRLPRPRPRPAFCPRP	-0.1
RRIRNRPPRLPRPRPRPYETPRP	-0.0276

Sequence	shrunken log2 fold change
RRIRHRPPRLPRPRPRPITLPRP	0.0184
RRIRWRPPRLPRPRPRPHKGPRP	-0.185
RRIRGRPPRLPRPRPRPHSQPRP	0.322
RRIRLRPPRLPRPRPRPDMHPRP	3.46
RRIRQRPPRLPRPRPRPTLGPRP	0.269
RRIRMRPPRLPRPRPRPRFVPRP	0.236
RRIRYRPPRLPRPRPRPDSFPRP	0.0025
RRIRTRPPRLPRPRPRPLTAPRP	-0.32
RRIRVRPPRLPRPRPRPDYLPRP	-0.222
RRIRGRPPRLPRPRPRPNNMPRP	-0.317
RRIRCRPPRLPRPRPRPNSPPRP	-0.217
RRIRGRPPRLPRPRPRPKPSPRP	1.1
RRIRKRPPRLPRPRPRPHRVPRP	0.34
RRIRFRPPRLPRPRPRPIIQPRP	-0.786
RRIRERPPRLPRPRPRPKTPPRP	0.0131
RRIRYRPPRLPRPRPRPIATPRP	0.0782
RRIRIRPPRLPRPRPRPGVWPRP	0.191
RRIRNRPPRLPRPRPRPERKPRP	-0.016
RRIRYRPPRLPRPRPRPHHEPRP	-0.0815
RRIRSRPPRLPRPRPRPVGRPRP	0.65
RRIRFRPPRLPRPRPRPKCAPRP	-0.0345
RRIRPRPPRLPRPRPRPNTGPRP	0.881
RRIRIRPPRLPRPRPRPYFAPRP	-0.694
RRIRYRPPRLPRPRPRPCNEPRP	0.0341
RRIRIRPPRLPRPRPRPCCRPRP	-0.322
